The target of test [1] is FHCS-1 (RSV strain A2) (UniProt P03420). Nature of the test: ELISA; F coated 312.5 ng/ml; stored -80° C.
Test [2] deals with FHCS-4 (RSV strain A2) (UniProt P03420). Nature of the test: ELISA; F coated 10000 ng/ml; stored -80° C.
In test [3] the target is FHCS-1 (RSV strain A2) (UniProt P03420). Nature of the test: ELISA; F coated 10000 ng/ml; stored -80° C.
For test [4], the target named is FHCS-2 (RSV strain A2) (UniProt P03420). Nature of the test: ELISA; F coated 10000 ng/ml; stored -80° C.
For test [5], the target named is FHCS-4 (RSV strain A2) (UniProt P03420). Nature of the test: ELISA; F coated 1250 ng/ml; stored -80° C.
In test [6] the target is FHCS-1 (RSV strain A2) (UniProt P03420). Nature of the test: ELISA; F coated 1250 ng/ml; stored -80° C.
The target of test [7] is FHCS-2 (RSV strain A2) (UniProt P03420). Nature of the test: ELISA; F coated 1250 ng/ml; stored -80° C.
The target of test [8] is FHCS-4 (RSV strain A2) (UniProt P03420). Nature of the test: ELISA; F coated 312.5 ng/ml; stored -80° C.
Test [9] has as its target FHCS-1 (RSV strain A2) (UniProt P03420). Nature of the test: ELISA; F coated 312.5 ng/ml; stored -80° C. The source holds these as a separate data set.
The target of test [10] is FHCS-2 (RSV strain A2) (UniProt P03420). Nature of the test: ELISA; F coated 312.5 ng/ml; stored -80° C.
Test [11] addresses wild-type RSV F protein 2 before artificial mutation (RSV strain A2) (UniProt P03420). Nature of the test: sandwich ELISA, AM14 coated, F at 2 µg/ml.
The target in test [12] is FHCS-4 (RSV strain A2) (UniProt P03420). Nature of the test: ELISA; F coated 5000 ng/ml; stored -80° C.
For test [13], the target named is FHCS-1 (RSV strain A2) (UniProt P03420). Nature of the test: ELISA; F coated 5000 ng/ml; stored -80° C.
Test [14] has as its target FHCS-2 (RSV strain A2) (UniProt P03420). Nature of the test: ELISA; F coated 5000 ng/ml; stored -80° C.
Test [15] deals with FHCS-4 (RSV strain A2) (UniProt P03420). Nature of the test: ELISA; F coated 10000 ng/ml; stored -80° C. The source holds these as a separate data set.
Test [16] concerns the target FHCS-1 (RSV strain A2) (UniProt P03420). Nature of the test: ELISA; F coated 10000 ng/ml; stored -80° C. This is another data set of the same source.
Test [17] addresses FHCS-2 (RSV strain A2) (UniProt P03420). Nature of the test: ELISA; F coated 10000 ng/ml; stored -80° C. This is another data set of the same source.
Test [18] deals with FHCS-4 (RSV strain A2) (UniProt P03420). Nature of the test: ELISA; F coated 312.5 ng/ml; stored 37° C. 2 W.
In test [19] the target is FHCS-1 (RSV strain A2) (UniProt P03420). Nature of the test: ELISA; F coated 312.5 ng/ml; stored 37° C. 2 W.
Test [20] has as its target FHCS-2 (RSV strain A2) (UniProt P03420). Nature of the test: ELISA; F coated 312.5 ng/ml; stored 37° C. 2 W.
For test [21], the target named is FHCS-4 (RSV strain A2) (UniProt P03420). Nature of the test: ELISA; F coated 625 ng/ml; stored -80° C.
Test [22] concerns the target FHCS-1 (RSV strain A2) (UniProt P03420). Nature of the test: ELISA; F coated 625 ng/ml; stored -80° C.
The target of test [23] is FHCS-2 (RSV strain A2) (UniProt P03420). Nature of the test: ELISA; F coated 625 ng/ml; stored -80° C.
For test [24], the target named is FHCS-4 (RSV strain A2) (UniProt P03420). Nature of the test: ELISA; F coated 156.3 ng/ml; stored -80° C.
For test [25], the target named is FHCS-2 (RSV strain A2) (UniProt P03420). Nature of the test: ELISA; F coated 156.3 ng/ml; stored -80° C.
Test [26] deals with FHCS-4 (RSV strain A2) (UniProt P03420). Nature of the test: ELISA; F coated 625 ng/ml; stored 37° C. 2 W.
In test [27] the target is FHCS-1 (RSV strain A2) (UniProt P03420). Nature of the test: ELISA; F coated 625 ng/ml; stored 37° C. 2 W.
The target in test [28] is FHCS-2 (RSV strain A2) (UniProt P03420). Nature of the test: ELISA; F coated 625 ng/ml; stored 37° C. 2 W.
Test [29] addresses FHCS-4 (RSV strain A2) (UniProt P03420). Nature of the test: ELISA; F coated 78.13 ng/ml; stored 37° C. 2 W.
For test [30], the target named is FHCS-1 (RSV strain A2) (UniProt P03420). Nature of the test: ELISA; F coated 78.13 ng/ml; stored 37° C. 2 W.
Test [31] has as its target FHCS-2 (RSV strain A2) (UniProt P03420). Nature of the test: ELISA; F coated 78.13 ng/ml; stored 37° C. 2 W.
The target of test [32] is FHCS-4 (RSV strain A2) (UniProt P03420). Nature of the test: ELISA; F coated 312.5 ng/ml; stored -80° C. This is another data set of the same source.
Test [33] deals with FHCS-1 (RSV strain A2) (UniProt P03420). Nature of the test: ELISA; F coated 312.5 ng/ml; stored -80° C. This is another data set of the same source.
Test [34] has as its target FHCS-2 (RSV strain A2) (UniProt P03420). Nature of the test: ELISA; F coated 312.5 ng/ml; stored -80° C. The source holds these as a separate data set.
Test [35] concerns the target FHCS-4 (RSV strain A2) (UniProt P03420). Nature of the test: ELISA; F coated 156.3 ng/ml; stored 37° C. 2 W.
Test [36] has as its target FHCS-1 (RSV strain A2) (UniProt P03420). Nature of the test: ELISA; F coated 156.3 ng/ml; stored 37° C. 2 W.
The target of test [37] is FHCS-2 (RSV strain A2) (UniProt P03420). Nature of the test: ELISA; F coated 156.3 ng/ml; stored 37° C. 2 W.

Several values for one entry are separate records, joined by “and”; a condition that tells them apart may be missing. Identical values can stand only once.

Take AM14 monoclonal antibody: the OD value with FHCS-1 (RSV strain A2) [1] was 0.004 OD and 0.008 OD; with FHCS-4 (RSV strain A2) [2], 2.13 OD and 1.93 OD; with FHCS-1 (RSV strain A2) [3] it was 1.82 OD and 2.12 OD; with FHCS-2 (RSV strain A2) [4], 1.88 OD and 2.15 OD; in the test with FHCS-4 (RSV strain A2) [5], 0.007 OD and 0.006 OD; with FHCS-1 (RSV strain A2) [6], 0.011 OD and 0.015 OD. Also, the OD value with FHCS-2 (RSV strain A2) [7] is 0.017 OD and 0.02 OD; with FHCS-4 (RSV strain A2) [8] it was 0.008 OD and 0.006 OD; with FHCS-1 (RSV strain A2) [9], 0.003 OD and 0.006 OD; with FHCS-2 (RSV strain A2) [10], 0.007 OD; in test [11], 0.01 OD; in the test with FHCS-4 (RSV strain A2) [12] it was 0.252 OD and 0.209 OD. Further, the OD value in the test with FHCS-1 (RSV strain A2) [13] is 0.902 OD and 0.775 OD; in the test with FHCS-2 (RSV strain A2) [14], 0.985 OD and 0.796 OD; with FHCS-4 (RSV strain A2) [15] it was 0.825 OD and 0.743 OD; with FHCS-1 (RSV strain A2) [16] it was 1.77 OD and 2.07 OD; in the test with FHCS-2 (RSV strain A2) [17], 2.01 OD and 2.11 OD.

Take Synagis® (antibody): the OD value in the test with FHCS-4 (RSV strain A2) [18] was 0.074 OD and 0.071 OD; with FHCS-1 (RSV strain A2) [19] it was 0.051 OD and 0.05 OD; in the test with FHCS-2 (RSV strain A2) [20] it was 0.084 OD and 0.095 OD; with FHCS-4 (RSV strain A2) [21], 0.11 OD; with FHCS-1 (RSV strain A2) [22] it was 0.161 OD and 0.154 OD; in the test with FHCS-2 (RSV strain A2) [23] it was 0.409 OD and 0.307 OD. Also, the OD value was 0.021 OD and 0.017 OD with FHCS-4 (RSV strain A2) [24]; 0.028 OD and 0.032 OD with FHCS-2 (RSV strain A2) [25]; 0.187 OD and 0.166 OD in the test with FHCS-4 (RSV strain A2) [26]; 0.123 OD and 0.125 OD in the test with FHCS-1 (RSV strain A2) [27]; 0.211 OD and 0.227 OD with FHCS-2 (RSV strain A2) [28]; 0.018 OD and 0.015 OD with FHCS-4 (RSV strain A2) [29]. The OD value was 0.01 OD and 0.015 OD in the test with FHCS-1 (RSV strain A2) [30]; 0.018 OD and 0.022 OD with FHCS-2 (RSV strain A2) [31]; 0.032 OD and 0.028 OD with FHCS-4 (RSV strain A2) [32]; 0.065 OD and 0.053 OD with FHCS-1 (RSV strain A2) [33]; 0.109 OD and 0.097 OD in the test with FHCS-2 (RSV strain A2) [34]; 0.033 OD and 0.024 OD with FHCS-4 (RSV strain A2) [35]. Besides, the OD value was 0.017 OD and 0.018 OD with FHCS-1 (RSV strain A2) [36]; 0.037 OD and 0.036 OD with FHCS-2 (RSV strain A2) [37].
